This note sets out measurements from paper PMC11809415, “Structure of the F-tractin–F-actin complex” (The Journal of Cell Biology, 2025).

First the molecules themselves.
B1: F-tractinopt–mCherry fusion [rat] / F-actin (rabbit skeletal muscle α-actin filaments) [rabbit] (parent)
chain 1: APRRSVGELRLLFEARAASAA
chain 2: not shown

Some results are limits rather than exact numbers.

The variants in this assay derive from B1. The assay is described as follows: high-speed cosedimentation assay (SDS-PAGE densitometry). The following applies: with F-actin (rabbit skeletal muscle α-actin filaments) [rabbit]; 2 µM F-tractin-mCherry; high-speed sedimentation, 120,000 g; actin 0-40 µM.
chain 1 F13A: the dissociation constant (Kd) (commonly the free concentration of one partner at which half of the binding sites on the other are occupied at equilibrium, for simple one-to-one binding) is greater than 100 µM.
